The results in this text go back to the supplement of paper PMC10567573.

This series can be described thus: protein stability index of a GFP-peptide fusion (GPS, HEK-293T) (PSI 1-6); higher = more stable. Conditions: c terminus: a fixed tail appended.

± gives the standard deviation.
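Also: 24-mer peptide tiles fused after GFP, lentivirally expressed, FACS-sorted into six equal bins by GFP/DsRed ratio, decoded by Illumina sequencing, PSI is the read-weighted mean bin number.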

On to FSVKFEVQAPRWGNPRALSFVLSS [OAS1], for which the protein stability index is, setting by setting: (treatment: DMSO) 2.94 ± 0.27; (treatment: MLN4924 1 uM, 8 h) 3.01 ± 0.49.

Turning to VGGGSGDEASAATPPSSRRVWSPP [ZBTB22], the protein stability index came out at 4.66 ± 0.2 (treatment: DMSO) and 4.76 ± 0.34 (treatment: MLN4924 1 uM, 8 h).

As for GADKEILTTKGEMPVQLTSRREIR [ANKRD40], the protein stability index was 4.83 ± 0.13 (treatment: DMSO) and 4.95 ± 0.19 (treatment: MLN4924 1 uM, 8 h).

As to GSILQFNPEVGIFVSIAQSEQESL [SMG5], the protein stability index is, setting by setting: (treatment: DMSO) 3.07 ± 0.38; (treatment: MLN4924 1 uM, 8 h) 2.92 ± 0.18.

With EESTPGQTNSETAVVALTQDQPSE [HDAC6], the protein stability index came out at 5.49 ± 0.22 (treatment: DMSO) and 5.59 ± 0.34 (treatment: MLN4924 1 uM, 8 h).

For VKTSVPSSKSSGDLVDLFDGTSQS [CLINT1], the protein stability index is, setting by setting: (treatment: DMSO) 4.71 ± 0.24; (treatment: MLN4924 1 uM, 8 h) 4.8 ± 0.18.

On to KLIRDFDEKQQEANETLAEMEEEL [VTI1B], for which the protein stability index reads like this: (treatment: DMSO) 4.89 ± 0.32; (treatment: MLN4924 1 uM, 8 h) 5.3 ± 0.19.

Consider RRLLRRLSPSRGVAQCLRDLVAMQ [ZSWIM9], for which the protein stability index came to 2.49 ± 0.36 (treatment: DMSO) and 2.89 ± 0.32 (treatment: MLN4924 1 uM, 8 h).

Turning to REKEDYLHLKRQPKRRWLFWNSPS [RHOBTB2], the protein stability index amounted to 2.42 ± 0.23 (treatment: DMSO) and 2.56 ± 0.18 (treatment: MLN4924 1 uM, 8 h).

With WFPPAIMGVVSLVFLIIYYLDPSV [ARL6IP1], the protein stability index is, setting by setting: (treatment: DMSO) 2.52 ± 0.46; (treatment: MLN4924 1 uM, 8 h) 3.28 ± 0.64.

Take LSPKIMQEAFLVQEVVELPVTERQ [TBC1D10A]: the protein stability index (treatment: DMSO) was determined as 3.98 ± 0.19 and the protein stability index (treatment: MLN4924 1 uM, 8 h) was 3.91 ± 0.39.

As to GGQESSGLNLGKKISVPRDVMLEE [MYOZ1], the protein stability index is, setting by setting: (treatment: DMSO) 5.07 ± 0.27; (treatment: MLN4924 1 uM, 8 h) 5.1 ± 0.23.

For the sequence VAASPAPAGERRIYRHRIPSTICF [ZNF511], the protein stability index is, setting by setting: (treatment: DMSO) 2.51 ± 0.18; (treatment: MLN4924 1 uM, 8 h) 2.48 ± 0.21.

For the sequence LQRASILDMRRDHEEQLQRLKLLK [FBF1], the protein stability index is, setting by setting: (treatment: DMSO) 3.43 ± 0.48; (treatment: MLN4924 1 uM, 8 h) 3.72 ± 0.33.

With SRNAADKERAAGGGAGSSEDDAQS [GOLPH3], the protein stability index turned out to be 5.63 ± 0.24 (treatment: DMSO) and 5.6 ± 0.15 (treatment: MLN4924 1 uM, 8 h).

As for LGETKAYVFFEKDFGDMHSYVRSR [TRIB1], the protein stability index came out at 2.62 ± 0.42 (treatment: DMSO) and 2.37 ± 0.11 (treatment: MLN4924 1 uM, 8 h).

As for RAEPYPTSRFGSQCMQPNNIMGIE [NR2F2], the protein stability index is, setting by setting: (treatment: DMSO) 2.84 ± 0.15; (treatment: MLN4924 1 uM, 8 h) 2.81 ± 0.18.

Turning to LVFLELAQFHCAYQLADWCLHHIC [RHOBTB2], the protein stability index by setting is: (treatment: DMSO) 3.16 ± 0.17; (treatment: MLN4924 1 uM, 8 h) 2.98 ± 0.43.

Turning to MKRQNVRTLSLIVCTFTYLLVGAA [KCNK9], the protein stability index worked out at 3.36 ± 0.22 (treatment: DMSO) and 2.95 ± 0.37 (treatment: MLN4924 1 uM, 8 h).

RFEEGGRRKCGQYWPLEKDSRIRF [PTPN9]: the protein stability index (treatment: DMSO) worked out at 3.04 ± 0.36 and the protein stability index (treatment: MLN4924 1 uM, 8 h) was found to be 2.88 ± 0.33.

Consider ACPVCSKMVPRYDLNRHLDEMCAN [FAN1], for which the protein stability index by setting is: (treatment: DMSO) 2.6 ± 0.49; (treatment: MLN4924 1 uM, 8 h) 2.27 ± 0.17.

Take CYYCQAYVHHQALLDVKNIAHQNK [HDAC6]: the protein stability index is, setting by setting: (treatment: DMSO) 2.61 ± 0.33; (treatment: MLN4924 1 uM, 8 h) 2.33 ± 0.48.

Take PEASHLRFRRFRFQEAAGPREALS [ZNF263]: the protein stability index (treatment: DMSO) is 3.15 ± 0.42 and the protein stability index (treatment: MLN4924 1 uM, 8 h) came to 3.31 ± 0.51.

For the sequence LACWTYGISVPSGLFVPSLLCGAA [CLCN6], the protein stability index is, setting by setting: (treatment: DMSO) 3.13 ± 0.1; (treatment: MLN4924 1 uM, 8 h) 3.43 ± 0.4.

Regarding NNQEEETEFKELDGLREALANLRG [CCDC89], the protein stability index by setting is: (treatment: DMSO) 4.71 ± 0.29; (treatment: MLN4924 1 uM, 8 h) 4.58 ± 0.4.

Turning to RLDFFEKPDYEYLRTLFTDLFEKK [CSNK1G1], the protein stability index stood at 2.54 ± 0.38 (treatment: DMSO) and 2.77 ± 0.41 (treatment: MLN4924 1 uM, 8 h).

As to MPRHNYHKVAPLVQSLCAKHGIEY [FADS1], the protein stability index was 2.64 ± 0.36 (treatment: DMSO) and 2.5 ± 0.36 (treatment: MLN4924 1 uM, 8 h).

For the sequence SVLDDLLYAVGGHDGSSYLNSVER [KLHL20], the protein stability index runs as follows: (treatment: DMSO) 2.71 ± 0.46; (treatment: MLN4924 1 uM, 8 h) 3.03 ± 0.56.

In the case of SALPLAPNHLGGGAVVLGAESHAS [STX5], the protein stability index is, setting by setting: (treatment: DMSO) 4.22 ± 0.32; (treatment: MLN4924 1 uM, 8 h) 4.32 ± 0.53.

Take PHDRSQGDWAPPPEGGMEQALAGA [ZNF263]: the protein stability index is, setting by setting: (treatment: DMSO) 4.85 ± 0.26; (treatment: MLN4924 1 uM, 8 h) 4.83 ± 0.31.

For VSFEDPEFKSSFSQSFSLYVKYQV [ATE1], the protein stability index is, setting by setting: (treatment: DMSO) 2.99 ± 0.81; (treatment: MLN4924 1 uM, 8 h) 2.51 ± 0.61.

For HVAAAVLRIRSVEGRKKAFSTCGS [OR3A1], the protein stability index runs as follows: (treatment: DMSO) 2.3 ± 0.24; (treatment: MLN4924 1 uM, 8 h) 2.22 ± 0.34.

In the case of EARICRLLKHPNIVRLHDSISEEG [CAMK2D], the protein stability index is 3.56 ± 0.47 (treatment: DMSO) and 3.34 ± 0.28 (treatment: MLN4924 1 uM, 8 h).

FGHHHQRAWIPSENIQDITVNIHR [ZMYND11]: the protein stability index is, setting by setting: (treatment: DMSO) 2.78 ± 0.37; (treatment: MLN4924 1 uM, 8 h) 2.69 ± 0.35.

For the sequence QEELPALLKALVSELSEHLRDPLT [FCHSD1], the protein stability index was 2.13 ± 0.31 (treatment: DMSO) and 2.25 ± 0.071 (treatment: MLN4924 1 uM, 8 h).

With LPEKPVKLASHTRDTTGVSQMFPS [FBF1], the protein stability index amounted to 3.97 ± 0.13 (treatment: DMSO) and 3.99 ± 0.47 (treatment: MLN4924 1 uM, 8 h).
